Bridges are numbered along the chain shown (N, C = ends). Where no end group is shown, it is not given here. C4 = constraint linking the two cyclising residues; C5 = constraint linking the two cyclising residues; C7 = constraint linking the two cyclising residues
How the values were obtained:
Assay in all cases: fluorescence polarisation competition
P4 = molecular target: T1, P4
T1 chain: Ac-RLYGFKWH-NH2

P5C5 = molecular target: T2, P5C5 (linker 1-8 via C5; not fully specified (N-terminus, C-terminus); also: structure of constraint C5 not given here in text)
T2 chain: CRLYGFKC

P7C8 = molecular target: T3, P7C8 (bridge 1-8; not fully specified (N-terminus, C-terminus, bridges); printed as C_C8_RLYGFKW_C8_; also: structure of constraint C8 not given here in text)
T3 chain: CRLYGFKW

P5C7 = molecular target: T4, P5C7 (linker 1-8 via C7; not fully specified (N-terminus, C-terminus); also: structure of constraint C7 not given here in text)
T4 chain: CRLYGFKC

P1 = molecular target: T5, P1
T5 chain: Ac-RLYGFK-NH2

P2 = molecular target: T6, P2
T6 chain: Ac-LYGFKW-NH2

P5C4 = molecular target: T7, P5C4 (linker 1-8 via C4; not fully specified (N-terminus, C-terminus); also: structure of constraint C4 not given here in text)
T7 chain: CRLYGFKC

P3 = molecular target: T8, P3
T8 chain: Ac-RLYGFKW-NH2

IC50 (P4): 16.7 µM | IC50 (P5C5): 28.9 µM | IC50 (P7C8): 15.6 µM | IC50 (P5C7): 40 µM | IC50 (P1): > 500 µM | IC50 (P2): 137 µM | IC50 (P5C4): 54.6 µM | IC50 (P3): 22.5 µM
B1: CK2α (protein)
chain: MSGPVPSRARVYTDVNTHRPREYWDYESHVVEWGNQDDYQLVRKLGRGKYSEVFEAINITNNEKVVVKILKPVKKKKIKREIKILENLRGGPNIITLADIVKDPVSRTPALVFEHVNNTDFKQLYQTLTDYDIRFYMYEILKALDYCHSMGIMHRDVKPHNVMIDHEHRKLRLIDWGLAEFYHPGQEYNVRVASRYFKGPELLVDYQMYDYSLDMWSLGCMLASMIFRKEPFFHGHDNYDQLVRIAKVLGTEDLYDYIDKYNIELDPRFNDILGRHSRKRWERFVHSENQHLVSPEALDFLDKLLRYDHQSRLTAREAMEHPYFYTVVKDQARMGSSSMPGGSTPVSSANMMSGISSVPTPSPLGPLAGSPVIAAANPLGMPVPAAAGAQQ
